This data set can be described thus: soluble on expression in E. coli; label from the status in PepcDB or PDB records.
On to “MGSDKIHHHHHHMKDDQWLEARAHGDPMFPCNVYRVKEVNGQVIIHCHWHHEMEWIYMEAGEAEFQIGTKMTTVRAGEGLFIPSGHLHGAYPVSDKPFSLYATVVHPDFISSFGYDLIQSRYIDPFKDSERTGPIKLCPTHYWMSDMLTMLQATISQFQQKEEGYELVIKANLLQMMAELVKHFPRTEEQKTGTPQQIRQIKKVLQFIDEHYDEKLTIKQLANLVQMSEGHFSRFFKSIVRMTAVEYIHTQRLNKAARLLRETDRTIMDISMSVGFDHPSYFIKLFKRHKRCTPSEFRRIGLPTFSENMKT”, for which the “soluble on expression in E. coli” value is “not soluble”.

In the case of “MGSDKIHHHHHHMKDEILIRYINKHCTATEEKEILEWLKEKDNRQRLFELEQIWGLKAEMRFSDKGRMDEAYRQLSRQLGLSGQIEKREKPIQRFTVREWWKYAAVLVAVCLFATNLFYITKEEPEAYNTVVVPKGQRVSLLLSDGTTVWLNAESRFSYPAKFSEKYRTVTLEGEGYFEVAHNPKCPFTVKLPMLNIRVLGTKFNAKAYLDEPSWITLKEGSVEVSTLDDRSKERMSPNDQVYYTVSDGLVLIRNSAQANVDSWTTGDLRFDNKTLKEMAKVIERRYDVKIRIMDSSLVEEYFTCHFRKDLTIAQAMELLKETRRVDYRIEKKTVYLYKK”, the “soluble on expression in E. coli” value is “not soluble”. Turning to “MGSDKIHHHHHHMKDIANTPLVSIICSTYNHGLYISQCLDGFLMQKTNFPFEILIHDDASTDNTPDIIREYEHNHPQVIRPIYQKENKYSKKEDIFAKYQCSRVRGKYIAICEGDDYWIDPLKLQKQIDFLENNPDYGMIYTTSKVYNQKKGKIEEDIIGRKFNGYIELLSGNCIPTLTSCIRSALVMEYLKEVEPKSKNWLMGDYPMWLWISYYHKIKFLPESTTVYRVLEESASHSNDIQKYERFILSTIDITAFYIHKFNTPLTEPYLRSLSCFYYDLYDKYMCLGMYKKARHYSKLINPSYVSARMRRRVRRFHLRFIQIRLAKWFDIKGKERK”, the “soluble on expression in E. coli” value was “not soluble”.

For the sequence “MGSDKIHHHHHHMKDSALRVGIYQGPEIPQSFKVYAENVWRHLPKQDIATIPFKDRKDLPKSADVLWDIRSGGGNPPPDFLLEHPLPPLVVTVHGFAPLSLNGWEYFRTLKGLIMSGQYAKHKRERWREVRTAVGSIIAVSAFVKDEAIRFTGVPADRIHVCHHGVDGNAFTPGPDTESEPYFFHVSNDEPRKNVGAIVRAFRQLRRHCRVQLVLKLPEESARNYEKIEGIRVLSGFLTTEELVHLYRHALAFIFPSLYEGFGLPILEAMACGCPVITSNVSACREIAGEAARTINPRNESELLEAMEILYRNPEERRARTAMGLRRALGFSWEESAKCHARVLYMTADRNAPVASPD”, the “soluble on expression in E. coli” value was “not soluble”. In the case of “MGSDKIHHHHHHMKEGKANILIIDDISSNIFALENLLMTENRTFFKATSGDEGLKLALSKPVDLIILDVQMPEMDGFEVANMLKSNKRTKDIPILFASAELKEQKNMLKGLEEGAIDYLFKPLDPEITKAKVNMLIRLELQRKEMVEINSALEKSAILINNCLDIICTIDAETFKFEAFNVAMTNVLGYSSEEITSQSLLFFLQESDREFIKNLKKSDSNTGSFEIQIICKDSSIKWLQWNIVVKGGKWFSNARDITERKKKDDEIIRLNQDLHENIQQLENANKELESFSYSVSHDLRAPLRSINNYAQMLEDAFAAQMDEKSTRLLGNIKRNAFRMDTLIDDLLAFSRLGRKPVQKQSINMNDLVQHVYADMQGTFKGEFVLPALPDIDADYNLLKQVVVNLLSNAIKYSGKIEEPRIEVGYTKNPNAVVYYIKDNGAGFDMEYSDKLFGVFQRLHSTKEFEGTGVGLAIVKRIVEKHGGTIWAEAKVGEGATFYFSLPAPV” it was “not soluble”; in that of “MGSDKIHHHHHHMKEILKQQYAIIDIGSNTMRLVIYEKQNGGFYKEIENTKVVARLRNYLVDGVLIEEGIEVLLQTLFQFQESTRFHQLRHVLCVATATIRQAENQEEIKKLVEGQTDFTLRVLSEYEEARYGYLAVMNSTSFSEGITVDIGGGSTEVTYFRNREILEYHSFPFGALSLKQQFIKEDIPTEEELDKLQTYLEYQFRTLPWLIDKKLPLIAIGGSARNLVKIHQNLICYPIAGVHLYKMKEEDIKNVKEELEGLSFIELQKLEGLAKDRADTIVPAVEVFHTLVNVIEAPAFVLSRKGLREGVFYEELTKDLGISYYPNVVEESLYLLSHEYEMDMEFVMQLIKHGRLICQQLEETGLISMSVKDWEVFHQAAKVFNIGKYIDEEASRLHTFYLLANKTIDGMMHKERVRLALIASYKSKMLFKQHLSPFEGWFDKNEQKKIRLLGAVLQFSAALNIRQRSLVESISITESKEGLTFKIVCEQSALAEKVQAEKQKKQLERVLKTNINLFFESKH”, “not soluble”.

Turning to “MGSDKIHHHHHHMKEIVTVGVDIAKNVFQVHGVDAQGVVVVRRKLRRSKVSGFFESLPPCLIGIEACATAHHWARHLMALGHEVKLMPAAYVKPYVKRQKNDAADAEGICEAVQRPTMRFVPVKSKEQQGVLMLHRARELLVRQRTMLINALRAHLAELGIATRLGPMGVKDAVAVIEGIDQHLIPEIVQHALSPLCDQLRHVHTKIEEMDRQILEWHRSSALSQRLATIPGIGPVTASAIAATITDVSSFRSGRQLAAWIGLVPRQSSSGGKERLGRITRQGDPYIRRLLVIGAAL”, the “soluble on expression in E. coli” value is “not soluble”. In the case of “MGSDKIHHHHHHMKESLISFIKEKIEEYNYRGAVVGVSGGVDSAVVLSLCVQALGKDRVFALILPERDSSKDSLKDAVDFCERLGVEYRKRSITPILRKIGVYRLFPPRLFLPDSIVKRYVLNRWNTLSKDPFLDDLRNTGPEEFLKGLAYYRIKHRIRMCLLYFEAEKRGYAVVGTTNRTEYLTGLYVKWGDEAVDIEPIMHLYKTQVFELAKEMNVPEKILKKPPSPDLIPGITDEMAFNMSYLELDRILMKLEKNEDLSDEDPKKVERVKKILELSEKYRRDIPITFDRI” it was “not soluble”.

With “MGSDKIHHHHHHMKESLRREYAPVKDLKPDDHIKMVQDIFSTITGKYDFLNHLLSFRRDVAWRRFAARKMHFSVTRRYLDVATGTADLALEVARRYPEVQVIGVDFVLEMLEKAVEKSARRDKIRDRVHFVQADALALPFADASFDVVGIAFGIRNIPGRLGALREFSRVLVDGGQVVVLEMQSPEQKMLRPLCTFYLRHVLPRLARRFTRNPAAYLYLADSILHFPSSDRFSGMMRDAGFADVRNYPLTLGITRLYVGRKGQ”, the “soluble on expression in E. coli” value is “not soluble”. For the sequence “MGSDKIHHHHHHMKETSRKSGASAAKGKVIITCAVTGAIHTPTMSPYLPITPDQIASEAIAAAQAGAAILHLHARDPETGKPDQTPEAFARFLPRVKQGTNAAINITTGGSPYMKVEERVRPAAQFKPEVASLNMGSINFGLYHLADKYETFKFDWEKPHLEATRDLVFRNSFKDIEYILATCYDNGTRFEFECYDIAHLYNLSHFADRGLVKPPFFVQSVFGLLGGIGTHPEDVAHMKRTADRLFGDQFRWSVLGAGASQLRIAAQSAALGGNIRVGLEDSLWAGKGKLAKSNAEQVVLARKIIEGLGMEVATPDEAREILSLKGGDKVAF”, the “soluble on expression in E. coli” value is listed as “not soluble”.

In the case of “MGSDKIHHHHHHMKFFSLADEAEFKSIIISKNKAVDVIGSKLGGQVVSFSDEWFASAENLIQPTAPIRDPTRFVHSGAWYDGWETRRHNEMEYDWVIIKMGVAAAHIIGGEIDTAFFNGNHAPFVSIEALYDEGEEGNIVEDDSRWVEIVEKFECGPSQRHLFVRGNGLTKERFTHIKLKMYPDGGIARFRLYGRVVPPELKTKDHIIDLAYVCNGAVALKYSDQHFGSVDNLLLPGRGHDMSDGWETKRSRQPGHTDWAVIQLGRESSFIEKIIVDTAHFRGNFPQFITVEGCLKESESSENTGEGTWVELVGKSKTGPDKEHVYEIRKSIRVSHVKLTIIPDGGVKRIRVWGY”, the “soluble on expression in E. coli” value is “soluble”. Then “MGSDKIHHHHHHMKFSIDRDALLKPLQLVSGAVERRHNLPILANLLVEVSGHSLKMTGTDLEVELVGEATVHGDVQEGRTTVPAKKLLDIVKSLPEQTEIKVEQQENKWLLRCGRSRFSLATLPAEEYPNVEAFRPDIEFTLKQGTLKSLIDSTQFSMANQDVRYYLNGLLIETEGNVLRAVATDGHRLALSHRMIEASLPEKQVIVPRKGVVELSRLLDAEDQDITLAIGESAIRATTATAVFTSKLVDGRFPDYRRVLPKGGDKIVIASRNQLKQALLRASILSNEKFRGVRILLEDGLLKITANNPEQEEAEEIIDVDYNSTTLEIGFNVSYLLDVLNSLRSDEVRVTLIDSNSSALIENHVEEDSMYVVMPMRL”, with “not soluble”; and “MGSDKIHHHHHHMKFSLGPILYFWPKQQVFDFYQQAAESDVEHVYLGETVCSKRRELKLDDYLAIAHMLREAGKKVTLSTMTLLEAPAELRELGKYCDNGEFDVEANDVSAIGVLQEQGLNFTAGPGINIYNHQSLRRLIDMGMTRWVVPFELSRDWLQDVLQHNLIDTVRDCFDVEVFSFGHIPLAWSGRCFTARSENRPKDQCELCCIKYPEGREVKSQEGQQVFVLNGIQTQSGTRYNLINQLPGMNGLVDIVRISPQPEGTFDWLQRFRSNINGEHPVTLTSKENNGYWLQLAGLATG”, with “not soluble”. In the case of “MGSDKIHHHHHHMKFTINRTLFIEKLEKASATVDVKNPMPALQGVLLDCNSKGMILMGSDGTETVTLVTRFNVNSGDCTEPGKVLFAAAPVLKTIKKFKSEFIGLEHKNNELKIVESKKKQFSFCTMDHEEYPEIKIEAGEDWISLSQEQFVSMANGTLHAIPAMDTRKILTGVNLKSVDDKFFSIATDAHRLARLHFDCTKITIAKDGEVVLPIKSLKTALKLFNRETNLQLKLISDTQLLIRGESIIYQSRLLAGTYPDTARMVPDEFKSEIQLSREEFKNTLEQLSAFSSLIVLTSEGKESIHLKPQNSQVGTASVEIPCNQVEAFTLACNVEYLLQALQTITSETIAIKMISNQRPIVVVGAEDTTHSNLQLILPVRV”, the “soluble on expression in E. coli” value is given as “not soluble”. Regarding “MGSDKIHHHHHHMKFYNREKEVAELKRVQELAFTQNSRMIVVTGRRRIGKTSLIKEALKGTPTVYLFIGRKAESILVTDFVKIVRETLSIFVPEGIPTFTNLMQYLFEVGKTRAFNIVIDEFQEFYNIRPDVFSDMQNLWDEYKQETKINLVISGSVYSLMQKIFTDHNEPLFGRADNILCLRAFKIGVLKQIMEDLASGYSNDDLLALYTLTGGIPKYVELFCDNQALTIDKMYDFVFSENSLFIDEGRNLLITEFGKNYGTYFSILSEIANGHYTQGEIESALGGTAIGGYLSKLENVYNLITRERPIFAKPGTKKNVRYVIGDNFLNFWFKYIEQNRSYIELQNFDDLRQLAKADYPTYSGRVLEKYFKQKLAETGGFKEIGSWWETKSSIGKQRINSYEIDIVALKSSGKKALIAEVKRVPENNYSHTVFMEKVEHLKQKEMSKYDIETQVLGLKDM”, the “soluble on expression in E. coli” value is “not soluble”. In the case of “MGSDKIHHHHHHMKHAYLIIAHNEFEILKRLIQALDDERNDIYIHFDRKLNHYPDCRTSYAKLTFLEERMDVRWGDISVVDAEFALFDEAYRRGEYSYYHLLSGVDMPLKTQNYIHRFFEKNAGKEFVGYYQGNISKEIDRKVCRWHLFPKSFKETEGGLAVTKRVLRAGCVRLQSLLGIRRNKDINFRKGTQWLSISNELVGYLLQQQKEVRRVYTHTFCADEIFVQTICWNSSFRDRVYDMHDEGHGCLRMIGWKDNQLEEWKEKDFEILMNSEALFARKFSIRHIEVVDQILNEISK” it was “not soluble”.

Source of the values: the DeepSol protein solubility set.
